Where two headings read alike, the source gives them in different places. Where no end group is shown, it is not given here. The star is where a group is joined. Biotin = O=C1N[C@H]2[C@H](CS[C@H]2CCCCC(=O)*)N1
T1: Bacillus stearothermophilus DnaB helicase (B. stearothermophilus, UniProt Q9X4C9 1-454)
T1 sequence (looked up): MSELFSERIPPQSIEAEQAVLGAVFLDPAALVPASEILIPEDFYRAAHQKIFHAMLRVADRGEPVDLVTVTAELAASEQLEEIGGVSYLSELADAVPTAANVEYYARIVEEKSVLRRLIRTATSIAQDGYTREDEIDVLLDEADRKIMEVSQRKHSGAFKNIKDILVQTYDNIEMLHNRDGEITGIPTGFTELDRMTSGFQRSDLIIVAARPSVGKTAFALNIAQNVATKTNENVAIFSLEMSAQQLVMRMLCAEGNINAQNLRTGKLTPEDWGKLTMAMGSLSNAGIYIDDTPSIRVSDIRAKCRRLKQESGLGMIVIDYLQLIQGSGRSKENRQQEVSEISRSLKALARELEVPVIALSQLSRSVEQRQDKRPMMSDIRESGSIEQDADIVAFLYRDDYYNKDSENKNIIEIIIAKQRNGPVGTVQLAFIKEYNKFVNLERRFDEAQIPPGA


Tests used:
[1] = target: T1, Bacillus stearothermophilus DnaB …; test: SPR
[2] = target: T1, Bacillus stearothermophilus DnaB …; test: SPR; remark: listed apart in the source

Binder | Kd [1] | stoichiometry N [1] | Kd [2]
DnaI-N132 (residues 1-132 of B. subtilis DnaI, C-terminal His6) (domain or fragment, UniProt P06567 1-132, looked up) MEPIGRSLQGVTGRPDFQKRLEQMKEKVMKDQDVQAFLKENEEVIDQKMIEKSLNKLYEYIEQSKNCSYCSEDENCNNLLEGYHPKLVVNGRSIDIEYYECPVKRKLDQQKKQQSLMKSMYIQQDLLGATFQ | 0.65 µM | 0.8 molecules per Bst DnaB subunit | –
Biotin-SGMEPIGRSLQGVTGRPDFQ [N-terminally biotinylated DnaI-N-peptide (DnaI residues 1-18, preceded by biotin-Ser-Gly)] | – | – | ≥ 50 µM
DnaI-N106 (N-terminal 106 residues of B. subtilis DnaI) (domain or fragment, UniProt P06567 1-106, looked up) MEPIGRSLQGVTGRPDFQKRLEQMKEKVMKDQDVQAFLKENEEVIDQKMIEKSLNKLYEYIEQSKNCSYCSEDENCNNLLEGYHPKLVVNGRSIDIEYYECPVKRK | 18.5 µM | 1.8 molecules per Bst DnaB subunit | –

Next, values leading:

Kd [1] | stoichiometry N [1] | Kd [2] | Binder
> 140 µM | – | – | MEPIGRSLQGVTGRPDFQ [unmodified peptide corresponding to residues 1-18 of DnaI]
7.3 µM | 1.7 molecules per Bst DnaB subunit | – | DnaI-N123 (residues 1-123 of B. subtilis DnaI) (domain or fragment, UniProt P06567 1-123, looked up) MEPIGRSLQGVTGRPDFQKRLEQMKEKVMKDQDVQAFLKENEEVIDQKMIEKSLNKLYEYIEQSKNCSYCSEDENCNNLLEGYHPKLVVNGRSIDIEYYECPVKRKLDQQKKQQSLMKSMYIQ

Source: paper PMC2673437 (Nucleic Acids Research, 2009)
